# Experimental data: patent US20030235557A1
# Biological target: mouse B6 class I antigens (D^b or K^b molecules on the surface of RMA-S cells) (mouse (C57Bl/6))
# Test: RMA-S class I stabilisation, peptide 25 ug/ml, flow cytometry with FITC anti-D^b or anti-K^b
# Chain of mouse B6 class I antigens (D^b or K^b molecules on the surface of RMA-S cells) (mouse (C57Bl/6)) (P01899 25-362, chain 1 of 2): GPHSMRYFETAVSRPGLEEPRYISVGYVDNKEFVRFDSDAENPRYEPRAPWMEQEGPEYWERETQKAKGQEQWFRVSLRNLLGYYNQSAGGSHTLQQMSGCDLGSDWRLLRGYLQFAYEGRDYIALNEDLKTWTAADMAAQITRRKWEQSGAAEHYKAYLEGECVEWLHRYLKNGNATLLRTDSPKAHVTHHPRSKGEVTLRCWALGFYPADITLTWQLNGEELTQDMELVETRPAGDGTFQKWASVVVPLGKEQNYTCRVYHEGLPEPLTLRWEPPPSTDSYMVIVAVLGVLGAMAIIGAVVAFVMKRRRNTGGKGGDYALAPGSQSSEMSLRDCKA
# Chain of mouse B6 class I antigens (D^b or K^b molecules on the surface of RMA-S cells) (mouse (C57Bl/6)) (P01887 21-119, chain 2 of 2, further chain): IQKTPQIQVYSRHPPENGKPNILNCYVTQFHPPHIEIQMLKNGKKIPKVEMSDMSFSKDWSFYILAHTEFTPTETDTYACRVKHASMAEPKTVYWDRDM
row,Binder,Binding Affinity to Mouse MHC Class I (% increase of D^b or K^b on RMA-S cells) [%]
1,YSSDNLYQM [WT1 peptide p221-229 …],0.8
2,SCLESQPAI [WT1 peptide human p136-144 …],52
3,GCNKRYFKL [WT1 peptide p329-337 …],1.2
4,NLYQMTSQL [WT1 peptide p225-233 …],5.8
5,CMTWNQMNL [WT1 peptide p235-243 …],33.6
6,ALLPAVPSL [WT1 peptide human p10-18 …],2.2
7,NQMNLGATL [WT1 peptide p239-247 …],1
8,QMTSQLECM [WT1 peptide p228-236 …],1.2

# Biological target: mouse B6 class I antigens (D^b or K^b molecules on the surface of RMA-S cells) (mouse (C57Bl/6))
# Test: binding of 9mer peptides within p117-139 to mouse B6 (H-2^b) class I, RMA-S assay as in Example 4
row,Binder,Binding Affinity to Mouse MHC Class I [%]
1,ARMFPNAPY [WT1 peptide P125-133 …],1
2,QASSGQARM [WT1 peptide P119-127 …],2
3,APYLPSCLE [WT1 peptide P131-139 …],1
4,SSGQARMFP [WT1 peptide P121-129 …],1
5,FPNAPYLPS [WT1 peptide P128-136 …],1
6,NAPYLPSCL [WT1 peptide P130-138 …],79
7,MFPNAPYLP [WT1 peptide P127-135 …],2
8,SQASSGQAR [WT1 peptide P118-126 …],2
9,PNAPYLPSC [WT1 peptide P129-137 …],1
10,ASSGQARMF [WT1 peptide P120-128 …],1
11,QARMFPNAP [WT1 peptide P124-132 …],1
12,PSQASSGQA [WT1 peptide P117-125 …],2
